Laboratory results reported in patent US20260078190A1 (SYSTIMMUNE, published 2026).
Where two headings read alike, the source gives them in different places.

How the values were obtained:
[1] = molecular target: T1, SI-2C1, dimeric EGFR ECD fused to rabbit Fc (UniProt P00533 25-645, limits assumed); assay: ELISA, plate coated with dimeric EGFR ECD-rabbit Fc (SI-2C1) at 3 µg/mL, antibody from 50 µg/mL in 3x dilutions, goat anti-human IgG-HRP, OD 450 nm
T1 construct: extracellular domain; Made in house; also called dimeric EGFR ECD reagent; not shown: rabbit Fc

[2] = molecular target: T2, Her3 ECD (Sino Biological, 10201-H08H-10) (UniProt P21860 20-643); assay: BLI (BLItz), same tip after the EGFR step; second step Her3 ECD 200 nM, 120 s association, 60 s dissociation
T2 construct: extracellular domain; Bought reagent; also called Her3 extracellular domain

[3] = molecular target: T3, Extracellular domain (Met 1-Ser 645) of human EGFR with a C-terminal polyhistidine tag (human, UniProt P00533 25-645); assay: BLI (Octet Red96), antibody on anti-human Fc sensor, curve fit at EGFR 100 nM
T3 construct: range 1-645; also called EGFR protein; EGFR ECD; not shown: C-terminal polyhistidine tag

[4] = molecular target: T3, Extracellular domain (Met 1-Ser 645) of …; assay: BLI (Octet Red96), antibody on anti-human Fc sensor, average of the four curve fits
[5] = molecular target: T4, EGFR on A431 and FaDu tumor cells (UniProt P00533 25-1210, limits assumed); assay: flow cytometry titration on tumour cells (Fadu by the legend paragraph 18, A431 by Example 7 paragraph 83), PE anti-human IgG-Fc, geometric MFI; the table's head prints 'IC50 (nM)', Example 7 calls the values EC50 of binding; bispecific EGFR x Her3 on cells that carry both, the anti-Her3 curve (SI-1C1) stays near the baseline
T4 construct: whole, on cells; the cells are native tumor lines, not transfectants

[6] = molecular target: T5, Monomeric EGFR ECD (SI-2R4) (UniProt P00533 25-645, limits assumed); assay: ELISA on coated monomeric EGFR ECD (SI-2R4), detection through Her3 ECD rabbit IgG1 (SI-1R1); antibody after 7 days in 95% human serum at 37 C; Day 7 at 37 C, 95% human serum
T5 construct: extracellular domain; Coated antigen of the serum stability ELISA

[7] = molecular target: T5, Monomeric EGFR ECD (SI-2R4); assay: ELISA on coated monomeric EGFR ECD (SI-2R4), detection through Her3 ECD rabbit IgG1 (SI-1R1) and anti-rabbit IgG-HRP; antibody in 95% human serum, Day 0; Day 0, 95% human serum
[8] = molecular target: T3, Extracellular domain (Met 1-Ser 645) of …; assay: BLI (Octet Red96), antibody on anti-human Fc sensor, curve fit at EGFR 11.1 nM
[9] = molecular target: T3, Extracellular domain (Met 1-Ser 645) of …; assay: BLI (Octet Red96), antibody on anti-human Fc sensor, curve fit at EGFR 300 nM
[10] = molecular target: T5, Monomeric EGFR ECD (SI-2R4); assay: ELISA on coated monomeric EGFR ECD (SI-2R4), detection through Her3 ECD rabbit IgG1 (SI-1R1); antibody in 95% human serum, Day 7 at 55 C (degradation condition)
[11] = molecular target: T4, EGFR on A431 and FaDu tumor cells; assay: flow cytometry titration on tumour cells (A431 by the legend paragraph 19, FaDu by Example 7 paragraph 83), PE anti-human IgG-Fc, geometric MFI; the table's head prints 'IC50 (nM)', Example 7 calls the values EC50 of binding; bispecific EGFR x Her3 on cells that carry both, the anti-Her3 curve (SI-1C1) stays near the baseline
[12] = molecular target: T3, Extracellular domain (Met 1-Ser 645) of …; assay: BLI (Octet Red96), antibody on anti-human Fc sensor, curve fit at EGFR 33.3 nM
[13] = molecular target: T5, Monomeric EGFR ECD (SI-2R4); assay: ELISA on coated monomeric EGFR ECD (SI-2R4, 3 µg/mL), antibody after 3 days at 37 °C in 95% human serum, column 'Day 3 (37°C)'; M follows from the text, which gives the neighbouring 4.293e-010 as 429.3 pM
[14] = molecular target: T2, Her3 ECD (Sino Biological, …); assay: BLI (BLItz), same tip after the EGFR step; second step Her3 ECD 200 nM, 120 s association, 60 s dissociation; remark: listed apart in the source
[15] = molecular target: T1, SI-2C1, dimeric EGFR ECD fused to …; assay: ELISA, plate coated with dimeric EGFR ECD-rabbit Fc (SI-2C1) at 3 µg/mL, antibody from 10 µg/mL in 3x dilutions, goat anti-human IgG-HRP, OD 450 nm

B1: SI-1X4 (bispecific antibody, human IgG1, kappa)
heavy: not shown
light: DIQMTQSPSSLSASVGDRVTITCRSSQNIVHSNGNTYLDWYQQTPGKAPKLLIYKVSNRFSGVPSRFSGSGSGTDFTFTISSLQPEDIATYYCFQYSHVPWTFGQGTKLQITRTVAAPSVFIFPPSDEQLKSGTASVVCLLNNFYPREAKVQWKVDNALQSGNSQESVTEQDSKDSTYSLSSTLTLSKADYEKHKVYACEVTHQGLSSPVTKSFNRGEC
notes: Tetravalent: anti-EGFR (1C5) IgG1 with anti-HER3 scFv on the heavy chain C-terminus
Q: What does the source list for B1?
A: EC50 (read off the curve) [1]: ~5 nM; binding result [2]: binds

B2: SI-1X4.2 (bispecific antibody)
heavy: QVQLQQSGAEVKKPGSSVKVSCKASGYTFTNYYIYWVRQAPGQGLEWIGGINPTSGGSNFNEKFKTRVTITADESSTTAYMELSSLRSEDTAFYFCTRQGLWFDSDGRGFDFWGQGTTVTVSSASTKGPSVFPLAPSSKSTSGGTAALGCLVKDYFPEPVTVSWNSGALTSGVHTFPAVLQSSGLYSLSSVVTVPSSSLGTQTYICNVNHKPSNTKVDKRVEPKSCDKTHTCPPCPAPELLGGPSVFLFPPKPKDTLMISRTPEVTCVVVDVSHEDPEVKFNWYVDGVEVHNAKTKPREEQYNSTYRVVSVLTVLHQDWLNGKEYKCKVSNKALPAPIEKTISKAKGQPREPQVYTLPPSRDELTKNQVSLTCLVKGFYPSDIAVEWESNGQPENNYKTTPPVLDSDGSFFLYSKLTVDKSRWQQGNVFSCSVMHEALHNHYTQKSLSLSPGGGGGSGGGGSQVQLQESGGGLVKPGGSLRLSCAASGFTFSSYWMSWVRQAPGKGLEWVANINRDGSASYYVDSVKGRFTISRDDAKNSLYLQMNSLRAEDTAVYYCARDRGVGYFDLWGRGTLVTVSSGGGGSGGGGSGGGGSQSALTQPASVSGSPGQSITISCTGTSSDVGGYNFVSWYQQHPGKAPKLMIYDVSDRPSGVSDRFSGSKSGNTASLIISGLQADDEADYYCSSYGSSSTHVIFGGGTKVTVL
light: DIQMTQSPSSLSASVGDRVTITCRSSQNIVHSNGNTYLDWYQQTPGKAPKLLIYKVSNRFSGVPSRFSGSGSGTDFTFTISSLQPEDIATYYCFQYSHVPWTFGQGTKLQITRTVAAPSVFIFPPSDEQLKSGTASVVCLLNNFYPREAKVQWKVDNALQSGNSQESVTEQDSKDSTYSLSSTLTLSKADYEKHKVYACEVTHQGLSSPVTKSFNRGEC
notes: Tetravalent: anti-EGFR (1C5.2) IgG1 with anti-HER3 scFv
Q: B2 was tested. Which Kd [3] did it give?
A: 21 nM

Q: And the koff [3]?
A: 0.00165 s⁻¹

Q: What about the kon [3] of the same binder?
A: 78800 M⁻¹ s⁻¹

Q: And the Kd [4]?
A: 18.4 nM

Q: And the koff [4]?
A: 0.00155 s⁻¹

Q: What about the kon [4] of the same binder?
A: 125000 M⁻¹ s⁻¹

Q: What about the EC50 [5] of the same binder?
A: 4.02 nM

Q: What about the EC50 [6] of the same binder?
A: 0.467 nM

Q: What about the EC50 [7] of the same binder?
A: 0.429 nM

Q: And the Kd [8]?
A: 6.19 nM

Q: What about the koff [8] of the same binder?
A: 0.00135 s⁻¹

Q: What about the kon [8] of the same binder?
A: 218000 M⁻¹ s⁻¹

Q: And the Kd [9]?
A: 36.9 nM

Q: And the koff [9]?
A: 0.00171 s⁻¹

Q: What about the kon [9] of the same binder?
A: 46300 M⁻¹ s⁻¹

Q: What about the EC50 [10] of the same binder?
A: 4.25 nM

Q: What about the EC50 [11] of the same binder?
A: 2.28 nM

Q: What about the Kd [12] of the same binder?
A: 9.44 nM

Q: And the koff [12]?
A: 0.00149 s⁻¹

Q: And the kon [12]?
A: 158000 M⁻¹ s⁻¹

Q: What about the EC50 [13] of the same binder?
A: 0.509 nM

B3: SI-1C5 (antibody, human IgG1, kappa, V domains shown)
VH: QVQLQQSGAEVKKPGSSVKVSCKASGYTFTNYYIYWVRQAPGQGLEWIGGINPTSGGSNFNEKFKTRVTITVDESTNTAYMELSSLRSEDTAFYFCARQGLWFDSDGRGFDFWGQGSTVTVSS
VL: DIQMTQSPSSLSASVGDRVTITCRSSQNIVHSNGNTYLDWYQQTPGKAPKLLIYKVSNRFSGVPSRFSGSGSGTDFTFTISSLQPEDIATYYCFQYSHVPWTFGQGTKLQITR
notes: Monospecific anti-EGFR IgG1 kappa
Q: B3 was tested. Which “EC50 (read off the curve)” value [1] did it give?
A: ~5 nM

B4: SI-1C4 (bispecific antibody, human IgG1, kappa, V domains shown)
VH: EVQLVESGGGLVQPGGSLRLSCAASGFTLSGDWIHWVRQAPGKGLEWVGEISAAGGYTDYADSVKGRFTISADTSKNTAYLQMNSLRAEDTAVYYCARESRVSFEAAMDYWGQGTLVTVSS
VL: DIQMTQSPSSLSASVGDRVTITCRASQNIATDVAWYQQKPGKAPKLLIYSASFLYSGVPSRFSGSGSGTDFTLTISSLQPEDFATYYCQQSEPEPYTFGQGTKVEIKR
notes: Control: two-in-one bispecific antibody against EGFR and HER3 (Schaefer et al. 2011 platform); also called IC4; benchmark antibody
Q: Does B4 bind [14]?
A: binds

Q: And the “EC50 (read off the curve)” value [15]?
A: ~0.03 nM

B5: SI-1X1 (bispecific antibody, human IgG1, kappa)
heavy: not shown
light: QSALTQPASVSGSPGQSITISCTGTSSDVGGYNFVSWYQQHPGKAPKLMIYDVSDRPSGVSDRFSGSKSGNTASLIISGLQADDEADYYCSSYGSSSTHVIFGGGTKLTVLRTVAAPSVFIFPPSDEQLKSGTASVVCLLNNFYPREAKVQWKVDNALQSGNSQESVTEQDSKDSTYSLSSTLTLSKADYEKHKVYACEVTHQGLSSPVTKSFNRGEC
notes: Tetravalent: anti-HER3 IgG1 with anti-EGFR scFv on the heavy chain C-terminus (heavy chain entry holds IgG1 heavy chain, connector and scFv)
Q: Does B5 bind [14]?
A: binds

Q: What about the “EC50 (read off the curve)” value [15] of the same binder?
A: ~0.2 nM

B6: SI-1X3 (bispecific antibody, human IgG1, kappa)
heavy: not shown
light: QSALTQPASVSGSPGQSITISCTGTSSDVGGYNFVSWYQQHPGKAPKLMIYDVSDRPSGVSDRFSGSKSGNTASLIISGLQADDEADYYCSSYGSSSTHVIFGGGTKLTVLRTVAAPSVFIFPPSDEQLKSGTASVVCLLNNFYPREAKVQWKVDNALQSGNSQESVTEQDSKDSTYSLSSTLTLSKADYEKHKVYACEVTHQGLSSPVTKSFNRGEC
notes: Tetravalent: anti-HER3 IgG1 with anti-EGFR (1C5) scFv on the heavy chain C-terminus
Q: Does B6 bind [2]?
A: binds
